Results published in patent US10428140B2, “Anti-EphA4 antibody” (EISAI R&D MANAGEMENT CO., LTD., priority 2015, dated 2019).

Key:
[1] = system: mouse, rat, monkey, and human EphA4; assay: Reactivity ELISA with mouse, rat, monkey, and human EphA4; type: binding; conditions: 0.00128-20 μg/mL
Protocol: Mouse, rat, monkey, and human EphA4 extracellular region-Fc-His proteins were prepared according to the following steps. First, according to the method described in Example 1, a monkey EphA4 extracellular region-Fc-His protein expression vector was constructed. The amino acid sequence of monkey EphA4 used in the vector construction is shown in SEQ ID NO: 44, and its extracellular region is shown in SEQ ID NO: 45. Next, HEK293EBNA cells (Life Technologies) were inoculated to a 10-cm dish (Falcon) and cultured at 37° C. for 1 day. The HEK293EBNA cells were transfected with the monkey EphA4 extracellular region-Fc-His protein expression vector or the mouse EphA4, rat EphA4, or human EphA4 extracellular region-Fc-His protein expression vector described in Example 1 using TransIT-LT1 (TAKARA). After incubation (5% CO2, 37° C.) for 4 days, the culture supernatant was recovered and centrifuged at 1500 rpm at room temperature for 5 minutes. […]
Antibody A was evaluated for its binding activity against various Eph receptors according to the following steps.
Each well of a 96-well plate (Nunc) was coated with a donkey anti-mouse IgG antibody (Jackson ImmunoResearch Laboratories). […] The absorbance at 450 nm was read using a microplate reader (PerkinElmer).

[2] = system: human Eph receptor (EphA1-A8, A10, EphB1-B4, B6); assay: Selectivity ELISA for human Eph receptor family; type: binding; conditions: antibody 10 μg/mL
Text: According to the method described in Example 1, a DNA sequence encoding the signal sequence and the extracellular region of each human Eph receptor (EphA1, EphA2, EphA3, EphA4, EphA5, EphA6, EphA7, EphA8, EphA10, EphB1, EphB2, EphB3, EphB4, and EphB6) was amplified by RT-PCR using tissue-derived total RNA and cloned into a pENTR1A vector (Invitrogen/Life Technologies) having a DNA sequence encoding a human IgG1 Fc region and histidine tag. Next, the DNA sequence encoding the signal sequence and the extracellular region of each human Eph receptor, Fc, and histidine tag was transferred to a pcDNA3.1_rfcB vector through LR reaction using Gateway System (Invitrogen/Life Technologies) to construct a vector for the expression of a protein of the extracellular region of each human Eph receptor fused with the human IgG1 Fc region and the His tag (referred to as “Eph receptor extracellular region-Fc-His protein”) (this vector is referred to as “Eph receptor extracellular region-Fc-His protein expression vector”). […]
Antibody A was evaluated for its binding activity against each human Eph receptor according to the following steps.
Each well of a 96-well plate (Nunc) was coated with a donkey anti-human IgG antibody (Jackson ImmunoResearch Laboratories). […] The absorbance at 450 nm was read using a microplate reader (PerkinElmer).

B1: antibody A: mouse anti-EphA4 monoclonal antibody, IgG1/κ; heavy chain variable region SEQ ID NO: 11, light chain variable region SEQ ID NO: 13 (antibody, listed as Mus musculus, V domains shown)
VH: QIQLVQSGPELKKPGETVKISCKASGYTFTDYSMHWVKQAPGKGLKWMGWINTETGEPTYADDFKGRFAFSLETSASTAYLQINNLKNEDTATYFCARIPLYYYGSRYWYFDVWGAGTTVTVSS
VL: DIQMTQSPASLSVSVGETVTITCRASENIYRNLAWYQQKQGKSPQLLVYAATNLADGVPSRFSGSGSGTQYSLKINSLQSEDFGSYYCQHFWGTPWTFGGGTKLEIK
reaction activity against mouse, rat, monkey, and human EphA4 (in words) [1]: equivalent reaction activity against all of mouse, rat, monkey, and human EphA4 | binding specificity among human Eph receptor family (in words) [2]: specifically had reaction activity only with human EphA4
